Experimental data: PMC2566886

Target: human Nudt16 protein (human) (UniProt Q96DE0)
Test: cross-linking

human Nudt16 protein, sequence (Q96DE0 whole entry): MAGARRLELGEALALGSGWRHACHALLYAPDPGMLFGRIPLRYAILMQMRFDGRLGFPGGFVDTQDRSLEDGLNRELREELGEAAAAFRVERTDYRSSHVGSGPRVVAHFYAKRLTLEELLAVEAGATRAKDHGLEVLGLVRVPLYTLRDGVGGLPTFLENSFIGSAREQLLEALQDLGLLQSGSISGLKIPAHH

human Nudt16 protein (from UniProt Q96DE0 1-195) (enzyme)
stoichiometry N: 2
